Data on 20 molecules can be found in US20230357447A1 (JANUX THERAPEUTICS, published 2023).

The target in assay [1] is T1, anti-CD28 scFv (VH-linker 1-VL) (biotinylated (site not stated)).
T1 construct: Captured as biotinylated scFv on neutravidin coated plates in the phage ELISA
Briefly: phage ELISA; scFv wells pre-incubated with soluble CD28 (competitor).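 Note: crude clonal phage supernatants added to wells pretreated with soluble CD28 in blocking buffer, bound phage read via HRP-linked anti-M13 antibody, reference wells got blocking buffer only.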

Assay [2] concerns the target T1, anti-CD28 scFv (VH-linker 1-VL). Briefly: phage ELISA; biotinylated scFv on neutravidin plate; anti-M13-HRP.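 Note: crude clonal phage supernatant added to wells pre-incubated with soluble CD28 protein or only blocking buffer, then washed, bound phage read out with an HRP-linked anti-M13 antibody.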 A general note: In an ELISA, binding on a coated surface is turned into a signal by an enzyme label.
Protocol: (§1) Clonal phage were harvested as crude supernatants and screened via standard enzyme linked immunosorbent assays (ELISAs). […] Prior to the addition of clonal phage, wells were incubated with blocking buffer and CD28 soluble protein or blocking buffer alone. Without washing or aspirating, clonal phage supernatants were then added to the wells and incubated for a short time. Wells were then washed followed by detection of bound phage using a horse radish peroxidase conjugated anti-M13 antibody.
The target in assay [3] is T2, Anti-CD28 scFv (VH-linker 1-VL) (biotinylated (site not stated)).
T2 construct: biotinylated and captured on neutravidin coated plates in the phage ELISA
Briefly: phage binding ELISA on captured anti-CD28 scFv, wells pre-incubated with soluble CD28 (competitor).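 Note: crude clonal phage supernatants added without washing, bound phage detected by HRP-conjugated anti-M13 antibody, control wells held blocking buffer alone instead of CD28.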

Assay [4] deals with T2, Anti-CD28 scFv (VH-linker 1-VL). Put plainly: phage binding ELISA on captured biotinylated anti-CD28 scFv.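 Note: crude clonal phage supernatants applied to the wells, bound phage read out with an HRP-conjugated anti-M13 antibody.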
Protocol: as §1

T2 sequence (scFv, as listed by the source): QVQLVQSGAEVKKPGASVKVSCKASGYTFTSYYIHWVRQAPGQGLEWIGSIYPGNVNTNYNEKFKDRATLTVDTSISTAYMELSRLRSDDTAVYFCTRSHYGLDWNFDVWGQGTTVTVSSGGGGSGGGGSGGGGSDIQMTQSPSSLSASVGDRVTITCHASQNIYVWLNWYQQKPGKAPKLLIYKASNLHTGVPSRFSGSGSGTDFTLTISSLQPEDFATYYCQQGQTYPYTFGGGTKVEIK
T1 sequence (scFv, as listed by the source): as above

TFGCPTTMWNRCFA (on phage (pIII fusion)) [Phage-218 clonal phage peptide]: the “CD28 scFv signal in presence of CD28” value in assay [1] stood at 0.068. Further, the “CD28 scFv signal” value in assay [2] turned out to be 0.181.

Turning to MYWCPINMWDYCYA [Phage-422], in assay [3], the “CD28 scFv signal in presence of CD28” value was 0.088. Moreover, the “CD28 scFv signal” value in assay [4] was 0.109.

For TTWCPTSMWLHCFD (on phage (pIII fusion)) [Phage-221 clonal phage peptide], the “CD28 scFv signal in presence of CD28” value in assay [1] stood at 0.072. The “CD28 scFv signal” value in assay [2] was 0.074.

As to IYWCPTAMWNRCSA [Phage-417], the “CD28 scFv signal in presence of CD28” value in assay [3] was 0.073. Also, the “CD28 scFv signal” value in assay [4] was found to be 0.817.

For MNWCPIHMWNQCFA [Phage-407], in assay [3], the “CD28 scFv signal in presence of CD28” value stood at 0.133. Also, the “CD28 scFv signal” value in assay [4] turned out to be 1.37.

Consider MYWCPKYMWSECFA [Phage-418], for which, in assay [3], the “CD28 scFv signal in presence of CD28” value is 0.099. Further, the “CD28 scFv signal” value in assay [4] came to 0.741.

As to MDWCPWDMWDKCFN (on phage (pIII fusion)) [Phage-217 clonal phage peptide], in assay [1], the “CD28 scFv signal in presence of CD28” value came out at 0.108. Besides, the “CD28 scFv signal” value in assay [2] was found to be 0.586.

Regarding NYWCPSSMWNRCLH (on phage (pIII fusion)) [Phage-219 clonal phage peptide], the “CD28 scFv signal in presence of CD28” value in assay [1] turned out to be 0.088. Also, the “CD28 scFv signal” value in assay [2] turned out to be 0.158.

In the case of QHWCPRDMWNDCYA [Phage-412], the “CD28 scFv signal in presence of CD28” value in assay [3] worked out at 0.149. Besides, the “CD28 scFv signal” value in assay [4] is 1.08.

Regarding MDWCPMYMWHKCFH [Phage-415], the “CD28 scFv signal in presence of CD28” value in assay [3] was 0.168. Also, in assay [4], the “CD28 scFv signal” value is 0.987.

Consider MSWCPRFMWHECFN [Phage-411], for which the “CD28 scFv signal in presence of CD28” value in assay [3] came to 0.246. For the same molecule, the “CD28 scFv signal” value in assay [4] is 1.11.

Regarding IDWCPRYMWHECFF [Phage-410], the “CD28 scFv signal in presence of CD28” value in assay [3] is 0.164. Moreover, the “CD28 scFv signal” value in assay [4] worked out at 1.18.

As to LHWCPITMWTYCYY [Phage-409], in assay [3], the “CD28 scFv signal in presence of CD28” value amounted to 0.516. In addition, the “CD28 scFv signal” value in assay [4] is 1.21.

Take LYWCPRDMWAYCYS [Phage-414]: the “CD28 scFv signal in presence of CD28” value in assay [3] was found to be 0.157. Further, the “CD28 scFv signal” value in assay [4] came to 1.02.

Take MFWCPKDMWAECFA [Phage-408]: the “CD28 scFv signal in presence of CD28” value in assay [3] stood at 0.113. The “CD28 scFv signal” value in assay [4] turned out to be 1.26.

For the molecule MDWCPKDRWNDCYF (on phage (pIII fusion)) [Phage-224 clonal phage peptide], in assay [2], the “CD28 scFv signal” value came to 1.09.

Take MFWCPSTMWNRCFD [Phage-420]: in assay [3], the “CD28 scFv signal in presence of CD28” value amounted to 0.138. In assay [4], the “CD28 scFv signal” value was 0.464.

As for FDFCPTTMWTYCQH (on phage (pIII fusion)) [Phage-220 clonal phage peptide], in assay [1], the “CD28 scFv signal in presence of CD28” value is 0.081. Also, the “CD28 scFv signal” value in assay [2] was 0.086.

On to MDWCPSDMWSNCFN [Phage-413], for which the “CD28 scFv signal in presence of CD28” value in assay [3] amounted to 0.121. Besides, in assay [4], the “CD28 scFv signal” value came out at 1.07.

MDWCPRDQWHNCFN (on phage (pIII fusion)) [Phage-222 clonal phage peptide]: in assay [1], the “CD28 scFv signal in presence of CD28” value came to 0.078. In addition, the “CD28 scFv signal” value in assay [2] is 0.2.
